# From CN112980885A (HENGYI BIOMEDICAL TECH SHANGHAI CO LTD, dated 2021)
# Biological target: 真实SARS-CoV-2(活病毒)
# Experiment: cell-based or functional assay
row,Binder,EC50 (活病毒在Vero-E6细胞中的活体外中和分析) [µg/mL]
1,"抗体15A7 (antibody, V domains shown) VH: QVQLVQSGAEVKKPGASVKVSCKASGYTFTSYDINWVRQASGQGLEWMGWMNPNSANPGYAQKFQGRVTMTRNTSISTAFMELSSLRSDDTAVYYCARARVTIHYDILTGYYSNAFDIWGQGTMVAVSS VL: DIQMTQSPSSLSASVGDRVTITCRASQTISSYLNWYQQKPGKAPKLLIYAASSLQSGVPSRFSGSGSGADFTLTISSLQPEDFATYYCQQSYTTFMYTFGQGTMLEIK",0.61
2,"抗体37G2 (antibody, V domains shown) VH: QVQLVQSGAEVKKPGSSVKVSCKASGGTFSSYAITWVRQAPGQGLEWMGGIIPIFGTANFAQKFQGRVTITADESTSTAYMELSSLRSEDTAVYYCAHLGGFADPFDYWGQGTLVTVSS VL: EIVLTQSPATLSLSPGERATLSCRASQSVSNYLAWYQQKAGQAPRVLIYDAFNRATGIPARFSGSGSGTDFTLTISSLEPEDFAVYYCQQRSNWPPRITFGQGTRLEIK",1.37
3,"抗体31C2 (antibody, V domains shown) VH: QVQLVQSGAEVKKPGSSVKVSCKASGGTFSSYAISWVRQAPGQGLEWMGGIIPIFGTTNYAQKFQGRVTITADESTSTAYMELNSLRSEDTAVYYCAGRSAYGDKGYYFDYWGQGTLVTVSS VL: EIVLTQSPATLSLSPGERATLSCRASQSVSNFLAWYQQKPGQAPRLLIYDASNRATGIPARFSGSGSGTDFTLTISSLQPEDFAVYYCQQRSNWPPQETFGQGTKVEIK",0.57
